Experiments:
Sp1 = Sp1 (UniProt P08047); assay: cell_activity; settings: luciferase induction in Drosophila cells
Sp3 = Sp3 (UniProt Q02447); assay: cell_activity; settings: luciferase induction in Drosophila cells
Chain of Sp3 (Q02447 whole entry): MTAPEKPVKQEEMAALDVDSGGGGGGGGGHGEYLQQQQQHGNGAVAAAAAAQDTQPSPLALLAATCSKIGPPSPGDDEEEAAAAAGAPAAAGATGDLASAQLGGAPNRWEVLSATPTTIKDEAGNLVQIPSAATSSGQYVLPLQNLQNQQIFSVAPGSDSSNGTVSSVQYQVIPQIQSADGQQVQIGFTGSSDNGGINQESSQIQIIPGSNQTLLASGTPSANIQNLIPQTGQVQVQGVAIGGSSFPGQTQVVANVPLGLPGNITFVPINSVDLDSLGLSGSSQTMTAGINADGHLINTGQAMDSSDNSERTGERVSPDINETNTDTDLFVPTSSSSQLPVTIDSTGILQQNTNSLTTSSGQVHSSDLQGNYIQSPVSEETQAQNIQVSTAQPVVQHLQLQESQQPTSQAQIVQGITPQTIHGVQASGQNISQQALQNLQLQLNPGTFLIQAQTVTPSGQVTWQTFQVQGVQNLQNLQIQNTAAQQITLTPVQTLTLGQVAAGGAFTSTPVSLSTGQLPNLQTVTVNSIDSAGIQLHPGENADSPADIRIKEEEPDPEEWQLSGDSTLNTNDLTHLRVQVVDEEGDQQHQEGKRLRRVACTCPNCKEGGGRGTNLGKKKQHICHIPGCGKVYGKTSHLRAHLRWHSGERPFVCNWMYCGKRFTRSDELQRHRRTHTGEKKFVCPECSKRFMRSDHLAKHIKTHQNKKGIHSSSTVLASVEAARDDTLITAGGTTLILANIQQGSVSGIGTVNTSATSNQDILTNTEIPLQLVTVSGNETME

Chain of Sp1 (P08047 2-785): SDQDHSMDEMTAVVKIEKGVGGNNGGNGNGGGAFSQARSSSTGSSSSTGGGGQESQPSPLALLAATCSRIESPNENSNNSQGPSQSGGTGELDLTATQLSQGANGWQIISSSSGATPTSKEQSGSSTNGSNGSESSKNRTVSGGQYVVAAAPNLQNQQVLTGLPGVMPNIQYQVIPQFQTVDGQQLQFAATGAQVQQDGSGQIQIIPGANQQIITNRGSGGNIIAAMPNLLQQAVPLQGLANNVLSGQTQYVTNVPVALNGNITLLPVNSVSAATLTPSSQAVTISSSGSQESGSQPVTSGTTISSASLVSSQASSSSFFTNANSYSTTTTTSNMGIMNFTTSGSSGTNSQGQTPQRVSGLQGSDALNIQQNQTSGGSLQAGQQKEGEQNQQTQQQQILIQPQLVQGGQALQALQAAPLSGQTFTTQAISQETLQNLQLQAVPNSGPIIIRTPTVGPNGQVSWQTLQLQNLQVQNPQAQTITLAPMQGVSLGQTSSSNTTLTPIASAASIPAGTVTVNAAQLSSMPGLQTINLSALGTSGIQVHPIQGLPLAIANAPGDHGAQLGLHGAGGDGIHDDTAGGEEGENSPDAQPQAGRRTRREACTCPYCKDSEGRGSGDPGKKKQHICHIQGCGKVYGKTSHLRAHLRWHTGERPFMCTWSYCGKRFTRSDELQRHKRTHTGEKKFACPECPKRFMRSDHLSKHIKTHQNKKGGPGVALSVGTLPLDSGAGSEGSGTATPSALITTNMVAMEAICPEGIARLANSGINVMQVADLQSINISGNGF

| Substance | activity (Sp1) | activity (Sp3) |
| --- | --- | --- |
| CD11c promoter -196/+30 (luc reporter) | 19.5 fold | 18.9 fold |
| CTGTATTGTTGTACAGAACTGCAGTTTGTTCTTTGTTATTTATTGTAAAGACAGGGTCTGGCTATGTTGCCTAGGCTGGTCTCGAACTGTTGGCCTCAAGCAATCCACCTGCCAAGCTCTGGGACCACAGGCATGAGCCATGGCATCTGATCKGTAGTTTGATCTTATTTCTTGCTGAGTAGTAGCCCATGGCATGACTTTATTATTTTGGGTGTCCATTCTCCTCTGGAGGGGCTCTGCTTTTTGAAACCACACCCTGGCCTAGCTCCCCTTCTCCCTGCCTCTCTGCAGGCTCACATCCACATGCCAAGACCTCTGCAGCCATTCTGCTTCCTGTCCTTCCACTCCTGTGGGACCTCAGAGAGCTACGGGGCTCCCTGGGTACCAACTGGCTCCTGAGGCCTGGGGGAGGGTGGTCTTCTGGGAGAAGGAAGCCAGGTCCCTGCAGGTTGTGGAGGGGGACAGAATGAGGGTTTTTCCCCAGGATGTTGTTGGCCCCTGCCCCCACTTCTGTTCCATAATTAACCACGCCCCTCCTACCCACTGTGCCCCTCTTCCTGCTGTGTGGAGGCCCTGAATCATTATTTTAACTACCCCCTGGGAGGGTGAGCACCTTCTGTGCTCTGTCCCCAACCTTCCACTTCCCCTCAACGCGCTGCTCAGGG (double strand) [CD11d promoter -591/+74 (luc reporter)] | 4.1 fold |  |

Source: patent US20050266562
